Assay results: article PMC6559209
pKd: −log10 of the molar value.

Molecular target: YlHD, hydrophilic domain of the Yarrowia lipolytica group 3 LEA protein (Yarrowia lipolytica)
Assay: MST; HD labelled with RED-NHS at 2 uM; label-free LDH titrated, diluted from 71 uM; binding buffer 20 mM HEPES, 150 mM KCl, pH 7.4 (the legend says phosphate buffer); normal conditions; Monolith NT.115, 20% LED, 60% MST power

pKd: 5.30
Substance: lactate dehydrogenase (LDH) (enzyme)
